Measurements taken from patent publication US20200165343A1 (Dana-Farber, published 2020).
Values belong to the molecule of their own block, whether it stands above or below them.

How the values were obtained:
[1] = target: MICA extracellular domain (α1-α3 domains), allele not stated (human) (UniProt Q29983); assay: fluorescence ELISA (DELFIA): immobilized MICA extracellular domain, antibody titrated, biotinylated anti-mouse IgG + Europium-streptavidin
[2] = target: T1, MICA extracellular domain (α1-α3 domains), allele not stated (human, UniProt Q29983 24-307); assay: as above
T1 construct: extracellular domain; also called MICA α1-α3 domains; full-length extracellular domain
T1 sequence (looked up): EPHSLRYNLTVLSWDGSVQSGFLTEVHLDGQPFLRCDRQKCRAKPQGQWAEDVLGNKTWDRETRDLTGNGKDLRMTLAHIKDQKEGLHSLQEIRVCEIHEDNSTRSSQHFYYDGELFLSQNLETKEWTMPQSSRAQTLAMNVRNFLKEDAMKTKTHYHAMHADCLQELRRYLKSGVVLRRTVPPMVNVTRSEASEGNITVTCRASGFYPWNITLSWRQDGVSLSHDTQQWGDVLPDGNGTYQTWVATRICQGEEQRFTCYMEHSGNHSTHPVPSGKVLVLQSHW

EC50 [1]: 1 µg/mL
Molecule: mAb 6D4 (anti-MICA/B antibody, clone 6D4, Biolegend; specific for the MICA α1-α2 domains)

EC50 [2]: 1 µg/mL
B1: mAb 7C6 (parental murine IgG2b monoclonal antibody specific for the MICA/B α3 domain) (antibody, V domains shown)
VH: QIQLVQSGPELKKPGETVKVSCKASGYMFTNYAMNWVKQAPEKGLKWMGWINTHTGDPTYADDFKGRIAFSLETSASTAYLQINNLKNEDTATYFCVRTYGNYAMDYWGQGTSVTVSS
VL: DIQMTQTTSSLSASLGDRVTISCSASQDISNYLNWYQQKPDGTVKLLIYDTSILHLGVPSRFSGSGSGTDYSLTISNLEPEDIATYYCQQYSKFPRTFGGGTTLEIK
notes: Mouse hybridoma antibody; also called 7C6 mAb; 7C6-mIgG2b
